Results taken from patent US20100137420.

Legend:
[1] = molecular target: cathepsin B (from THP-1 cell lysates), P07858
recombinant cystatin C = molecular target: T1, recombinant cystatin C
T1 chain: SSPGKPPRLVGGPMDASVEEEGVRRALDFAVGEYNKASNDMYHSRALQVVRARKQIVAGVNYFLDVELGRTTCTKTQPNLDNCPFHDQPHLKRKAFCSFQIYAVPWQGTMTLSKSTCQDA

B1: MMP-2 (protein)
chain: YNFFPRKPKWDKNQITYRIIGYTPDLDPETVDDAFARAFQVWSDVTPLRFSRIHDGEADIMINFGRWEHGDGYPFDGKDGLLAHAFAPGTGVGGDSHFDDDELWTLGEGQVVRVKYGNADGEYCKFPFLFNGKEYNSCTDTGRSDGFLWCSTTYNFEKDGKYGFCPHEALFTMGGNAEGQPCKFPFRFQGTSYDSCTTEGRTDGYRWCGTTEDYDRDKKYGFCPETAMSTVGGNSEGAPCVFPFTFLGNKYESCTSAGRSDGKMWCATTANYDDDRKWGFCPDQGYSLFLVAAHEFGHAMGLEHSQDPGALMAPIYTYTKNFRLSQDDIKGIQELYGASPDIDLGTGPTPTLGPVTPEICKQDIVFDGIAQIRGEIFFFKDRFIWRTVTPRDKPMGPLLVATFWPELPEKIDAVYEAPQEEKAVFFAGNEYWIYSASTLERGYPKPLTSLGLPPDVQRVDAAFNWSKNKKTYIFAGDKFWRYNEVKKKMDPGFPKLIADAWNAIPDNLDAVVDLQGGGHSYFFKGAYYLKLENQSLKSVKFGSIKSDWLGC
[1]
  cathepsin B activity (fluorogenic Ac-Arg-Arg-AFC assay): Cathepsin D and MMP-2 alone had no effect on cathepsin B activity
Recombinant cystatin C
  cleavage of recombinant cystatin C: MMP-2 cleaved cystatin C at three unique sites
